Results: patent US20190300605A1 (Pfizer, published 2019)
Changes are numbered by the printed parent chain. Each block holds one binder with its values, some of them ahead of it.

Key:
recombinant mouse MAdCAM = molecular target: T1, recombinant mouse MAdCAM (mouse, UniProt Q61826 22-365); test: ELISA
T1 sequence (looked up): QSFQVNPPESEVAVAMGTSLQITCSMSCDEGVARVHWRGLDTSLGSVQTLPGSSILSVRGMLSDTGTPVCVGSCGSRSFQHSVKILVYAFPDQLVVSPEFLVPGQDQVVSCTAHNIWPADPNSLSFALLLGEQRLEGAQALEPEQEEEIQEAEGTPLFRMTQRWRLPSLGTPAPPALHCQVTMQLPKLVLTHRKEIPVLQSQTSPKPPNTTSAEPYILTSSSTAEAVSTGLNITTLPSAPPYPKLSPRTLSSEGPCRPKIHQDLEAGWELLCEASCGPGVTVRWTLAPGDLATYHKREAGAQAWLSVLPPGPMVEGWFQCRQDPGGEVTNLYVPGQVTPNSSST

[1] = molecular target: MAdCAM-IgG1 Fc fusion protein (human); test: cell-based or functional assay
[2] = molecular target: T2, human MAdCAM (full length) (human, UniProt Q13477 19-382); test: cell-based or functional assay
T2 sequence (looked up): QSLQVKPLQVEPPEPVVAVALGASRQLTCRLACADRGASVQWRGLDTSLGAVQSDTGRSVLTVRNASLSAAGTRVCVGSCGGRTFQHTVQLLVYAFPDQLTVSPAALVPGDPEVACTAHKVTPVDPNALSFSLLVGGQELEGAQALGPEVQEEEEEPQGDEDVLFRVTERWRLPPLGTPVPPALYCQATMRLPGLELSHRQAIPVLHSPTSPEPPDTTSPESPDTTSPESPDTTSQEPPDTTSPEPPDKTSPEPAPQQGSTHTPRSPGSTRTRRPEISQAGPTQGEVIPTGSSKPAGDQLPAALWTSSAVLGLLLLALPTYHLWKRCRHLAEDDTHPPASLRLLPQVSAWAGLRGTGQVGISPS

[3] = molecular target: T3, chimeric cynomolgus/human MAdCAM (cynomolgus; human, UniProt Q13477 226-382, limits assumed); test: cell-based or functional assay
T3 sequence: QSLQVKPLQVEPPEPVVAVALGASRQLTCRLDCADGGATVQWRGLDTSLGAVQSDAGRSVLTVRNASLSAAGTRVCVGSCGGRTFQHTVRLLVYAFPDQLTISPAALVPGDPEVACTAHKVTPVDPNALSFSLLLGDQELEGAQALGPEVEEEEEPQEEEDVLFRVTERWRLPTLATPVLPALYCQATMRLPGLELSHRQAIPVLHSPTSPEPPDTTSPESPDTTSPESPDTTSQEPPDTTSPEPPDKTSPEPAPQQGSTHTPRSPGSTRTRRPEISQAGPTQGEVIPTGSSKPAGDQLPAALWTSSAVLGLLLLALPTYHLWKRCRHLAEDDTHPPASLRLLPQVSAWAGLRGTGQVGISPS

[4] = molecular target: T4, MAdCAM-IgG1 Fc fusion protein (human); test: SPR BIAcore protocol 1: mAb captured, MAdCAM-IgG1 Fc injected
T4 construct: Made in CHO-DHFR cells; also called MAdCAM-IgFc
Protocol: To perform kinetic analyses, a high density mouse anti-human (IgG₂ and IgG₄) antibody surface over a CMS BIAcore sensor chip was prepared using routine amine coupling. Hybridoma supernatants were diluted 10, 5, 2-fold in HBS-P (10 mM HEPES pH 7.4, 150 mM NaCl, 0.005% Surfactant P20) running buffer containing 100 μg/mL BSA and 10 mg/mL carboxymethyldextran or used neat. Each mAb was captured onto a separate surface using a […] contact time and a 5 mM wash for stabilization of the mAb baseline. MAdCAM-IgG₁ Fc (141 nM) fusion protein was then injected at over all surfaces for one minute, followed by a 3 mM dissociation. The data were normalized for the amount of antibody captured on each surface and evaluated with global fit Langmuir 1:1, using baseline drift models available on the BIAevaluation software provided by BIAcore.

[5] = molecular target: T4, MAdCAM-IgG1 Fc fusion protein; test: SPR BIAcore protocol 2: mAb amine-coupled, MAdCAM-IgG1 Fc injected
Protocol: Affinity-purified mAb were immobilized onto the dextran layer of a CMS biosensor chip using amine coupling. […] Samples of MAdCAM-IgG₁ Fc fusion protein in running buffer were prepared at concentrations ranging from 0.2-55 nM (a 0 nM solution comprising running buffer alone was included as a zero reference). Samples were randomized and injected in duplicate for 3 mM each across 4 flow cells using HBS-EP (10 mM HEPES pH 7.4, 150 mM NaCl, 3 mM EDTA, 0.005% Surfactant P20) as running buffer. A flow rate of 100 μL/min was used to minimize mass transport limitations. Dissociation of MAdCAM-IgG₁ Fc fusion protein was monitored for 180 mins, the surface regenerated by a 6 sec injection of 25 mM H₃PO₄ (50 μL/min), or 10 mM (6.22.2), 20 mM (6.67.1, 6.73.2, 6.77.1) to 25 mM (6.34.2) and 45 mM NaOH (6.14.2) and the data analysed using the BIAevaluation (v3.1) software package.

[6] = molecular target: T4, MAdCAM-IgG1 Fc fusion protein; test: cell-based or functional assay; remark: listed apart in the source

MAdCAM IgG1 Fc fusion Assay Mean IC50 (Modified) [6]: 0.077 µg/mL
B3: modified anti-MAdCAM monoclonal antibody 6.77.1-mod (antibody, human IgG2, kappa, V domains shown)
VH: EVQLVESGGGLVKPGGSLRLSCAASGFTFSSYSMNWVRQAPGKGLEWVSSISSSSSYIYYADSVKGRFTISRDNAKNSLYLQMNSLRAEDTAVYYCARDGYSSGWSYYYYYGMDVWGQGTTVTVSS
VL: DIVMTQTPLSLSVTPGQPASISCKSSQSLLLSDGKTYLNWYLQKPGQPPQLLIYEVSNRFSGVPDRFSGSGSGTDFTLKISRVEAEDVGVYSCMQSIQLMSSFGQGTKLEIKR

binding result (recombinant mouse MAdCAM): no binding | Mean IC50, JY cell adhesion, MAdCAM FlpIn CHO Assay [2]: 0.52 µg/mL | Functional IC50, cynomolgus/human MAdCAM-CHO/JY adhesion assay [3]: 0.64 µg/mL | Kd [4]: ≤ 6.7 pM | koff [4]: ≤ 1e-05 s⁻¹ | kon [4]: 1.5e+06 M⁻¹ s⁻¹
B4: anti-MAdCAM monoclonal antibody 6.77.1 (antibody, human IgG4, kappa, V domains shown)
VH: B3 VH
VL: B3 VL with K24N, S101C
notes: human IgG4 kappa from hybridoma 6.77.1

Second part, the binder before the results:

B1: anti-MAdCAM monoclonal antibody 6.14.2 (antibody, human IgG4, kappa, V domains shown)
VH: EVQLLESGGGLVQPGGSLRLSCAASGLTFNNSAMTWVRQAPGKGLEWVSTTSGSGGTTYYADSVKGRFTISRDSPKNTLYLQMNSLRAEDTAVYYCAARGYSYGTTPYEYWGQGTLVTVSS
VL: DIQMTQSPSSLSASVGDRVTITCRASRSISSYLNWYQQKPGKAPKVLIFFVSSLQSGVPSRFSGSGSGTDFTLTISSLQPEDFATYYCQQNYIPPITFGQGTRLEIRR
notes: human IgG4 kappa from hybridoma 6.14.2
binding result (recombinant mouse MAdCAM): no binding | Mean IC50, JY cell adhesion to MAdCAM IgG1 Fc fusion [1]: 0.011 µg/mL | Mean IC50, JY cell adhesion, MAdCAM FlpIn CHO Assay [2]: 0.291 µg/mL | Functional IC50, cynomolgus/human MAdCAM-CHO/JY adhesion assay [3]: 0.53 µg/mL | Kd [4]: ≤ 7.7 pM | koff [4]: ≤ 1e-05 s⁻¹ | kon [4]: 130000 M⁻¹ s⁻¹ | Kd [5]: < 10 pM | koff [5]: < 5e-06 s⁻¹ | kon [5]: 500000 M⁻¹ s⁻¹

B2: modified anti-MAdCAM monoclonal antibody 7.26.4-mod (antibody, human IgG2, kappa, V domains shown)
VH: QVQLVQSGAEVKKPGASVKVSCEASGYTFTSYGIDWVRQAPGQGLEWMGWISVYSGNTNYAQKLQGRVTMSTDTSTSTAYMELRSLRSDDTAVYYCAREGSSSSGDYYYGMDVWGQGTTVTVSS
VL: B3 VL with L31Y, N39F, S92Y, M100P, S101W, S102T, L109V
MAdCAM IgG1 Fc fusion Assay Mean IC50 (Modified) [6]: 0.033 µg/mL

B5: anti-MAdCAM monoclonal antibody 7.16.6 (antibody, human IgG2, kappa, V domains shown)
VH: B2 VH with E23K, D35N, L64V, S71T, T72A, E82D
VL: DIVMTQTPLSLSVTPGQPASISCKSSQSLLHTDGTTYLYWYLQKPGQPPQLLIYEVSNRFSGVPDRFSGSGSGTDFTLKISRVEAEDVGIYYCMQNIQLPWTFGQGTKVEIKR
notes: Alexa488-labelled in the sandwich ELISA, biotinylated for staining of human sections
binding result (recombinant mouse MAdCAM): no binding

B6: modified anti-MAdCAM monoclonal antibody 6.67.1-mod (antibody, human IgG2, kappa, V domains shown)
VH: QVQLQESGPGLVKPSETLSLTCTVSGDSISSNYWSWIRQPAGKGLEWIGRIYTSGGTNSNPSLRGRVTMSVDTSKNQFSLKLSSVTAADTAVYYCARDRITIIRGLIPSFFDYWGQGTLVTVSS
VL: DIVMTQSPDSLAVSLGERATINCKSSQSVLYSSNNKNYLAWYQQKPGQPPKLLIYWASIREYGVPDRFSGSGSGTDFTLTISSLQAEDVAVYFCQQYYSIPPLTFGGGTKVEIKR
MAdCAM IgG1 Fc fusion Assay Mean IC50 (Modified) [6]: 0.037 µg/mL

B7: anti-MAdCAM monoclonal antibody 7.20.5 (antibody, human IgG2, kappa, V domains shown)
VH: QVQLQESGPGLVKPSETLSLTCTVSGSSISSYHWNWIRQPAGKGLEWIGRIYTSGSTNYNPSLKSRVTMSLDTSKNQFSLKLSSVTAADTAVYYCAREGVRYYYASGSYYYGLDVWGQGTTVTVSS
VL: not shown
notes: human IgG2 kappa from hybridoma 7.20.5
binding result (recombinant mouse MAdCAM): no binding | Mean IC50, JY cell adhesion to MAdCAM IgG1 Fc fusion [1]: 0.025 µg/mL | Mean IC50, JY cell adhesion, MAdCAM FlpIn CHO Assay [2]: 0.387 µg/mL | Functional IC50, cynomolgus/human MAdCAM-CHO/JY adhesion assay [3]: 0.62 µg/mL | Kd [4]: 42.2 pM | koff [4]: 1.9e-05 s⁻¹ | kon [4]: 450000 M⁻¹ s⁻¹ | Kd [5]: 75 pM | koff [5]: 1.2e-05 s⁻¹ | kon [5]: 160000 M⁻¹ s⁻¹
